For assay [1], the target named is T1, endogenous mouse PrxII (mouse (endogenous in MEFs and BMDMs)), Q61171.
T1 chain: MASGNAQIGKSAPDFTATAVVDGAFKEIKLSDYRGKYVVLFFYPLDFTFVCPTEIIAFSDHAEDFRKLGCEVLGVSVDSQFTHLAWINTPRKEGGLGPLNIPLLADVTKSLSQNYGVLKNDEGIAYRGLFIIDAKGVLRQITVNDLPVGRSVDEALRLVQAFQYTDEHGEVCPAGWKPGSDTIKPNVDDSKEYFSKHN
Briefly: nonreducing SDS-PAGE and immunoblot of disulfide-linked complexes. Particulars: remark: other sources report otherwise. (Immunoblotting shows a protein as a band on a membrane.)

The target in assay [2] is T2, endogenous mouse PrxI (mouse (endogenous in BMDMs)), P35700.
T2 chain: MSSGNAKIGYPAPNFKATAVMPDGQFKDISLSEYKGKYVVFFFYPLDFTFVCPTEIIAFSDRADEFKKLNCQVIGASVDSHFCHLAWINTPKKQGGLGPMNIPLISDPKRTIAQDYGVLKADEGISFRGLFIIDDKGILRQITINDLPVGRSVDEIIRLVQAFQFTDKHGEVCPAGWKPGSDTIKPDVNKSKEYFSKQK
The description is as above. The conditions noted are these: remark: other sources report otherwise.

B1: endogenous mouse PrxII, Q61171 1-198 (enzyme)
chain: T1 chain
Usually stoichiometry N stands for the number of molecules, sites or subunits per partner or assembly. In assay [1], B1 yielded a stoichiometry N of 2.

B2: endogenous mouse PrxI, P35700 1-199 (enzyme)
chain: T2 chain
B2 came in with a stoichiometry N in assay [2] of 2.

Values taken from paper PMC6482348.
